Experiments:
Frizzled = target: T1, Frizzled; experiment: binding affinity stated with the liposome/Frizzled pull-down competition assay; method behind the value not described
T1 construct: also called Fz; Frizzled, the WNT receptor

[1] = target: T2, low-density lipoprotein receptor-related protein 6 (LRP6) (UniProt O75581 20-1370, limits assumed); experiment: binding affinity stated in the FIG. 17 legend on the pull-down assays; method behind the value not described
T2 sequence (looked up): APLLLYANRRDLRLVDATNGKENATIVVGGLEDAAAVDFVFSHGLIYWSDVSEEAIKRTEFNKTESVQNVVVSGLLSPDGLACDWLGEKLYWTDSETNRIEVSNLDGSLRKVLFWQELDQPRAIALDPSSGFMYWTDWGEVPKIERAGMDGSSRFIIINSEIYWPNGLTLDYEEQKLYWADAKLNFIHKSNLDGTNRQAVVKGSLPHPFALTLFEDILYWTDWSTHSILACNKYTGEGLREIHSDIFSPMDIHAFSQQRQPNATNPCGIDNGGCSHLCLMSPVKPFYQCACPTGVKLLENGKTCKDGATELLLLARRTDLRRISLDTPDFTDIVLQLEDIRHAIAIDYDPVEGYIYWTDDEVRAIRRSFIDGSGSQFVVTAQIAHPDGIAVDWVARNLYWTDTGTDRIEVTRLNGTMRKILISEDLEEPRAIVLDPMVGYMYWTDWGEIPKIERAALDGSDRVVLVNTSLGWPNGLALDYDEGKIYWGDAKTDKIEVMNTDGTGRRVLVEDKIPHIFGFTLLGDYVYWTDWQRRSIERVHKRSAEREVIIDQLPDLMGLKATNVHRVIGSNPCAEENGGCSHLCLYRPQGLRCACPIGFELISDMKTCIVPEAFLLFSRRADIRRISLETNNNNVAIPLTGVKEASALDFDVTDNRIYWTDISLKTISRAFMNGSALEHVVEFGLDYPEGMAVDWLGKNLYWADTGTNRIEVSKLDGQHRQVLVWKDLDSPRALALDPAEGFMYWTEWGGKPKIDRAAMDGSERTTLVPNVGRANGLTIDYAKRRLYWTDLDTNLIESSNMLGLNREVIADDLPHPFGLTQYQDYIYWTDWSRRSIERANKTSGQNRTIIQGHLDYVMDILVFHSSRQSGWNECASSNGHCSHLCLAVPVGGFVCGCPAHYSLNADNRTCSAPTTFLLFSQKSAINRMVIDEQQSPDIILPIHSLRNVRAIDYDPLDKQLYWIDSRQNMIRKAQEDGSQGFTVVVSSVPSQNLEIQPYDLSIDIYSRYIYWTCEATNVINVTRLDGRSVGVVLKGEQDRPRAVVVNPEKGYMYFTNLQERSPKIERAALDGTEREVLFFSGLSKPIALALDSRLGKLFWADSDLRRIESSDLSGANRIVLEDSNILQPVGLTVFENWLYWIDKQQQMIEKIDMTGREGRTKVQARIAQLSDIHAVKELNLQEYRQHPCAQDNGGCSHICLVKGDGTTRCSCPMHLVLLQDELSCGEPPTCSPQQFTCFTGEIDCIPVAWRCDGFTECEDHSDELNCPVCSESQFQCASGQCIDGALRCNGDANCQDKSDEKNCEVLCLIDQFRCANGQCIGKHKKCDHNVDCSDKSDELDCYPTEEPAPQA

B1: Human Wnt3a polypeptide (ligand)
chain: SYPIWWSLAVGPQYSSLGSQPILCASIPGLVPKQLRFCRNYVEIMPSVAEGIKIGIQECQHQFRGRRWNCTTVHDSLAIFGPVLDKATRESAFVHAIASAGVAFAVTRSCAEGTAAICGCSSRHQGSPGKGWKWGGCSEDIEFGGMVSREFADARENRPDARSAMNRHNNEAGRQAIASHMHLKCKCHGLSGSCEVKTCWWSQPDFRAIGDFLKDKYDSASEMVVEKHRESRGWVETLRPRYTYFKVPTERDLVYYEASPNFCEPNPETGSFGTRDRTCNVSSHGIDGCDLLCCGRGHNARAERRREKCRCVFHWCCYVSCQECTRVYDVHTCK
modifications: palmitoylated at S209 (paragraph 228 instead reports palmitoylation at S211 and probable myristoleylation at S139 and S181); glycosylated
notes: Secreted from CHO cells and purified on blue Sepharose; In the pull-down assays it was reconstituted into DMPC:cholesterol liposomes (L-Wnt3a); also called L-Wnt3a; L-WNT3A
Frizzled
  Kd: ~3.6 nM
[1]
  Kd: ~9 nM

— patent publication US20160310424A1 (Stanford University, published 2016)
